Drawing on PMC12093266 (2025), this text covers Kd for three molecules.

To fix the notation:
B1: TrnC (enzyme)
chain: MSKKRLSMMPFKTDKFSYALDGNTGRVIVADKPTLYIISHFHKFEKEELLKKTKGKFAELHQDYLTTYNYVSSLINMGMFYLSEKEDSDSPIDSKELAINSNQSQLILILTEKCNLRCEYCIYNDKYPKEMGYSDEEMDFETAKKAVDMYYELHMERVKRGHKRFPVITMYGGEPLLKFDLIKKVMEYAKGLMPDTLFYTTTNGTLLSEKMMDYFINNRIIITFSIDGFKENHDRNRVFVNGMPTFERAFKNIKRLQEKKKEQNIEQIISFNCCFDQYTDVYKVAKFFEEHYDLFNPFFVLYNQINPFDTLYFDWCDEQVKTGKWNFDKNNFKNAMQKIEHELYEAETCDDHFQQVAGPLVMKDFVLSIRNKDGQQQITRNSCIPTSKIAVSPDGTLTLCEKMCKKYPIGTVEKGLDWKAVDGVTEKLVRHFNSDSCKYCPIRTMCEACFMFLDENGRIKPSFCKSKKMAVKKNLESYFAKKEKGFDVMKVYNHTSDLDSVKEMVK
modifications: fluorescently labeled with RED-NHS (in the MST experiments where TrnC is the labelled partner)

Test in all cases: MST
One test has as its target E79A mutant of TrnD (Bacillus thuringiensis).
The target in the test “TrnC” is B1.
The target in a further test is T1, TrnD (Bacillus thuringiensis, fluorescently labeled (in the MST of Fig. 5D only)).
T1 chain: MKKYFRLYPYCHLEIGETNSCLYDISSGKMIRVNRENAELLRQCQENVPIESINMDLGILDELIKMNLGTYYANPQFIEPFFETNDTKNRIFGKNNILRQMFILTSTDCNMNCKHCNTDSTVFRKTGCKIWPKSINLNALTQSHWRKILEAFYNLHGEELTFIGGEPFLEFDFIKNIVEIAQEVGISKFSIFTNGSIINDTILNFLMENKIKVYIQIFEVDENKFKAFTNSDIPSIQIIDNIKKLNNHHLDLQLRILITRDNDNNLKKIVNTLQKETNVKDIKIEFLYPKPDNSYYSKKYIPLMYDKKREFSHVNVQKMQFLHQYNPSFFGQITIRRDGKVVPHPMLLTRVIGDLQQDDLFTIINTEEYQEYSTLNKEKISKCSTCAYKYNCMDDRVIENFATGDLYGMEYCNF

In the test with E79A mutant of TrnD, B1 returned a Kd of 590 nM. Consider MEVMNNALITKVDEEIGGNAACVIGCIGSCVISEGIGSLVGTAFTLG [TrnA], for which the dissociation constant (Kd) with TrnC was found to be 5410 nM; with TrnD, 4430 nM. Taken in the same sequence, the figures for MEVLNKQNVNIIPESEEVGGWVACVGACGTVCLASGGVGTEFAAASYFL [TrnB] were 2470 nM and 2110 nM.

As usually defined, the Kd is the concentration at which binding is half-saturated. Higher therefore signals lower affinity.
